From IntAct's records for PubMed 20622900

Target: mk03_human MAPK3 (UniProt P27361)
Sequence (P27361 whole entry): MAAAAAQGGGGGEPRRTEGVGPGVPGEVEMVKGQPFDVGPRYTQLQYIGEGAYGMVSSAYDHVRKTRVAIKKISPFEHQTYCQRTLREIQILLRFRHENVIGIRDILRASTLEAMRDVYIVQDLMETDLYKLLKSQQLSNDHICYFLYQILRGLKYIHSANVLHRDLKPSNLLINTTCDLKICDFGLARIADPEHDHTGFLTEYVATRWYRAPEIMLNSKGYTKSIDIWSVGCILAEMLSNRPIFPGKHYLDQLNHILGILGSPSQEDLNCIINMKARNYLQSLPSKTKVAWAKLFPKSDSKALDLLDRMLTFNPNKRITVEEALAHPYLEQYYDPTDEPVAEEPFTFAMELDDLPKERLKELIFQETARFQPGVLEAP

Substance	effect of a mutation on the interaction
Protein scribble homolog (Homo sapiens), Q14160 K1399A;R1400A	disrupting interaction
Protein scribble homolog (Homo sapiens), Q14160 R839A;R840A	decreasing interaction
